The first test deals with HLA-A*0206 (human). As to the kind of experiment: competition with 125I-labelled standard peptide for purified HLA, gel filtration. As to conditions: remark: other sources report otherwise. On the technique in general: Size exclusion chromatography separates by hydrodynamic size, large species first.
Take PALGTTCYA (modifications not checked) [PSA 142 …]: the binding affinity ratio (IC50 of standard peptide / IC50 of test peptide) was 0.0002.

As to RMMNDQLMFL (modifications not checked) [peptide 1126.06 (PSM.662)], the IC50 – broadly, the concentration needed to halve the response being measured – came out at 40 nM.

For PALGTTCYA (modifications not checked) [Kallikrein 146 …], the binding affinity ratio (IC50 of standard peptide / IC50 of test peptide) came to 0.0002.

In a further test the target is HLA-A*0201 (human). As to the kind of experiment: inhibition of 125I-labelled probe peptide binding to purified HLA-A*0201, gel filtration.
Settings: not given
For the molecule TLMSAMTNL (modifications not checked) [PAP.112 …], the IC50 was below 200 nM.

Consider MMNDQLMFL (modifications not checked) [PSM.663 …], for which the IC50 was below 200 nM.

For LLLARAASLSL (modifications not checked) [PAP.6 …], the IC50 is below 200 nM.

In turn, MLLRLSEPAEL (modifications not checked) yielded an IC50 below 200 nM.

The molecule LMYSLVHNL (modifications not checked) [PSM.469 …] displayed an IC50 below 200 nM.

The test is the same for the next values; noted with them: remark: other sources report otherwise.
Take ALGTTCYA (modifications not checked) [PSA.143 ALGTTCYA]: the IC50 is below 200 nM.

For LLQERGVAYI (modifications not checked) [PSM.441 …], the IC50 was below 200 nM.

The molecule VLAKELKFV (modifications not checked) [PAP.30 …] returned an IC50 below 200 nM.

On to ILLWQPIPV (modifications not checked) [PAP.135 …], for which the IC50 was below 200 nM.

FLNESYKHEQV (modifications not checked) [PAP.92 …] registered an IC50 below 200 nM.

Molecule LLFFWLDRSV (modifications not checked) [PAP.21 …] displayed an IC50 below 200 nM.

LVLAGGFFL (modifications not checked) [PSM.26 …] registered an IC50 below 200 nM.

The molecule IMYSAHDTTV (modifications not checked) [PAP.284 …] gave an IC50 below 200 nM.

In the case of GLPSIPVHPI (modifications not checked) [PSM.288 …], the IC50 is below 200 nM.

As to ALFDIESKV (modifications not checked) [PSM.711 …], the IC50 is below 200 nM.

In the case of ALDVYNGLL (modifications not checked) [PAP.299 …], the IC50 was below 200 nM.

FLTPKKLQCV (modifications not checked) [PSA.161 …] returned a half-maximal inhibitory concentration (IC50) below 200 nM.

In turn, GMPEGDLVYV (modifications not checked) [PSM.168 …] gave an IC50 below 200 nM.

For the molecule QLMFLERAFI (modifications not checked) [PSM.667 …], the IC50 was below 200 nM.

As to VLAGGFFLL (modifications not checked) [PSM.27 …], the IC50 is below 200 nM.

KLQCVDLHV (modifications not checked) [PSA.166 …] had an IC50 below 200 nM.

As for LMLLRLSEPA (modifications not checked) [PSA.117 …], the IC50 was below 200 nM.

Consider SLHLLSNDMCA (modifications not checked) [HuK2.175 …], for which the IC50 was below 200 nM.

Molecule FLRPRSLQCV (modifications not checked) [HuK2.165 …] displayed an IC50 below 200 nM.

As for MLLRLSEPA (modifications not checked), the IC50 was below 200 nM.

In turn, RMMNDQLMFL (modifications not checked) [PSM.662 …] came in with an IC50 below 200 nM.

For the next test, the target named is HLA-A*0201 (human). As to the kind of experiment: inhibition of 125I-labelled standard peptide binding to purified HLA-A*0201, gel filtration.
Settings: not given
Consider AVCGGVLV (modifications not checked) [AVCGGVLV (PSA, position 44)], for which the binding affinity ratio (IC50 of standard peptide / IC50 of test peptide) turned out to be 0.0003.

With AVKVMDLPT (modifications not checked) [… (PSA, position 131)], the binding affinity ratio (IC50 of standard peptide / IC50 of test peptide) amounted to 0.0001.

Turning to AVEPDRYVIL (modifications not checked), the binding affinity ratio (IC50 of standard peptide / IC50 of test peptide) came to 0.0002.

Regarding CMTTNSHQGT (modifications not checked) [… (PAP, position 372)], the binding affinity ratio (IC50 of standard peptide / IC50 of test peptide) worked out at 0.0002.

On to CIRNKSVIL (modifications not checked), for which the binding affinity ratio (IC50 of standard peptide / IC50 of test peptide) was 0.0003.

In the case of CAQVHPQKV (modifications not checked), the binding affinity ratio (IC50 of standard peptide / IC50 of test peptide) is 0.0002.

Consider CAQVHPQKVT (modifications not checked), for which the binding affinity ratio (IC50 of standard peptide / IC50 of test peptide) was 0.0001.

Regarding CVDLHVISNDV (modifications not checked) [… (PSA, position 169)], the binding affinity ratio (IC50 of standard peptide / IC50 of test peptide) turned out to be 0.0001.

Regarding CIRNKSVILL (modifications not checked), the binding affinity ratio (IC50 of standard peptide / IC50 of test peptide) is 0.0001.

As for ATQIPSYKKL (modifications not checked) [… (PAP, position 274)], the binding affinity ratio (IC50 of standard peptide / IC50 of test peptide) turned out to be 0.0002.

As to AVEPDRYVI (modifications not checked), the binding affinity ratio (IC50 of standard peptide / IC50 of test peptide) was 0.0001.

Consider CIRNKSVI (modifications not checked) [CIRNKSVI (PSA, position 62)], for which the binding affinity ratio (IC50 of standard peptide / IC50 of test peptide) is 0.0001.

For CALPERPSL (modifications not checked) [… (PSA, position 230)], the binding affinity ratio (IC50 of standard peptide / IC50 of test peptide) amounted to 0.0001.

Still in this test, the particulars now being: remark: other sources report otherwise.
As to CALPEKPAV (modifications not checked) [… (Kallikrein, position 234)], the binding affinity ratio (IC50 of standard peptide / IC50 of test peptide) came out at 0.0002.

The next test has as its target HLA-A*0201 (human). As to the kind of experiment: competitive inhibition of 125I-labelled standard peptide binding to purified HLA, gel filtration; ratio = IC50 standard / IC50 test peptide.
Settings: not given
For VLSIALSVGCT (modifications not checked) [… (Kallikrein, position 5)], the binding affinity ratio was determined as 0.0002.

In the case of VLVHPQWVL (modifications not checked) [… (Kallikrein, position 53), listing 1 of 2 here], the binding affinity ratio was found to be 0.02.

For the molecule VISNDVCA (modifications not checked) [VISNDVCA (PSA, position 174)], the binding affinity ratio came to 0.0001.

In the case of VLRMMNDQL (modifications not checked), the binding affinity ratio came to 0.0001.

On to VATARRPRWL (modifications not checked) [… (PSM, position 12)], for which the binding affinity ratio stood at 0.0001.

Take VMDLPTQEPA (modifications not checked) [… (PSA, position 134)]: the binding affinity ratio came to 0.0001.

As for VLVHPQWVLT (modifications not checked) [… (Kallikrein, position 53), listing 1 of 2 here], the binding affinity ratio turned out to be 0.0001.

Consider VILLGRHSL (modifications not checked) [… (PSA, position 68)], for which the binding affinity ratio was 0.0003.

Take VLRKYADKI (modifications not checked) [… (PSM, position 603)]: the binding affinity ratio was determined as 0.0002.

Take VLVNEILNHM (modifications not checked) [… (PAP, position 262)]: the binding affinity ratio worked out at 0.0008.

Turning to VLVHPQWV (modifications not checked) [VLVHPQWV (Kallikrein, position 53)], the binding affinity ratio came to 0.0001.

As for VLVHPQWV (modifications not checked) [VLVHPQWV (PSA, position 49)], the binding affinity ratio is 0.0001.

Regarding VLVHPQWVLT (modifications not checked) [… (PSA, position 49), listing 2 of 2 here], the binding affinity ratio was 0.0001.

Take VLLSYPNKT (modifications not checked) [… (PSM, position 115)]: the binding affinity ratio came to 0.0002.

Take VLTAAHCI (modifications not checked) [VLTAAHCI (PSA, position 56)]: the binding affinity ratio turned out to be 0.0001.

VLVASRGRAV (modifications not checked): the binding affinity ratio was determined as 0.0003.

With VLVHPQWVL (modifications not checked) [… (PSA, position 49), listing 2 of 2 here], the binding affinity ratio is 0.02.

With VLRMMNDQLM (modifications not checked), the binding affinity ratio worked out at 0.0003.

As to VIGTLRGAV (modifications not checked) [… (PSM, position 358)], the binding affinity ratio stood at 0.0002.

In the case of VAYINADSSI (modifications not checked) [… (PSM, position 447)], the binding affinity ratio was determined as 0.0001.

As for VLVASRGRA (modifications not checked), the binding affinity ratio came to 0.0001.

Staying with this test, now noted: remark: other sources report otherwise.
With VISNDVCAQV (modifications not checked) [… (PSA, position 174)], the binding affinity ratio was 0.0008.

The values above are taken from US20070020327A1.
